In PMC4137706 (Molecular Biology and Evolution, 2014):

T1: Full-length human Flotillin 1 N-terminally tagged with GST (GST-HsFlotillin 1) (human, UniProt O75955 1-427)
T1 sequence: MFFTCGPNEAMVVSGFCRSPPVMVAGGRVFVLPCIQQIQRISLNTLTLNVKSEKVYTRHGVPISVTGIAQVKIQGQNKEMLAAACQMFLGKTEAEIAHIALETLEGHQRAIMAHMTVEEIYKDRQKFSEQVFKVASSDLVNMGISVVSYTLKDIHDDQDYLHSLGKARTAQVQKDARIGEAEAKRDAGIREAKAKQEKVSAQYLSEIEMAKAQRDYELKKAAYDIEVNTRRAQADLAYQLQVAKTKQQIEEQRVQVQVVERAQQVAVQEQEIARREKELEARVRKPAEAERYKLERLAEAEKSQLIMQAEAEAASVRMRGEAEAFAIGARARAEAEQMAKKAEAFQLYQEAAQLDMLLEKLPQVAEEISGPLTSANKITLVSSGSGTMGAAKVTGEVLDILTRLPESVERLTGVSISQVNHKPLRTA

B1: Full-length human Homer 1, N-terminally hexahistidine-tagged (His-HsHomer 1) (natural protein)
chain: MGEQPIFSTRAHVFQIDPNTKKNWVPTSKHAVTVSYFYDSTRNVYRIISLDGSKAIINSTITPNMTFTKTSQKFGQWADSRANTVYGLGFSSEHHLSKFAEKFQEFKEAARLAKEKSQEKMELTSTPSQESAGGDLQSPLTPESINGTDDERTPDVTQNSEPRAEPTQNALPFSHSSAISKHWEAELATLKGNNAKLTAALLESTANVKQWKQQLAAYQEEAERLHKRVTELECVSSQANAVHTHKTELNQTIQELEETLKLKEEEIERLKQEIDNARELQEQRDSLTQKLQEVEIRNKDLEGQLSDLEQRLEKSQNEQEAFRNNLKTLLEILDGKIFELTELRDNLAKLLECS

Legend:
[1] = molecular target: Full-length S. rosetta Flotillin 1 N-terminally tagged with GST (GST-SrFlotillin 1) (S. rosetta); assay: […]
[2] = molecular target: T1, Full-length human Flotillin 1 …; assay: pull-down

Molecule	Kd [1]	Kd [2]
Full-length Salpingoeca rosetta Homer, N-terminally hexahistidine-tagged (His-SrHomer) (natural protein)	0.96 µM	
B1		~0.83 µM
